We go through one molecule from patent US20260242489A1 (HUAHUI HEALTH, published 2026).

Some results are limits rather than exact numbers.

The target in test [1] is T1, mEGFR ECR (His6-Avi-tagged) (mouse, UniProt Q01279 25-644).
T1 construct: also called mouse EGFR; not shown: His6-Avi tag
In words: IgG1 ELISA at pH 6.5, mEGFR ECR against hEGFR ECR. A general note: ELISA stands for enzyme-linked immunosorbent assay.

Test [2] addresses T2, hEGFR ECR H370A (human, UniProt P00533 25-642). The test can be described thus: IgG1 ELISA, pH 6.5 and pH 7.4 (EC50 ratio pH 7.4/pH 6.5).
The target of test [3] is T3, hEGFR ECR-His6-Avi-Biotin (human, UniProt P00533 25-642, biotinylated on the Avi tag using BirA ligase).
T3 construct: also called WT hEGFR ECR; human EGFR ECD; not shown: His6-Avi tag
In words: ELISA: hEGFR ECR on plate, IgG1 titrated, anti-hFc-HRP; pH 6.5 [table].

For test [4], the target named is T3, hEGFR ECR-His6-Avi-Biotin. In words: ELISA: hEGFR ECR on plate, IgG1 titrated, anti-hFc-HRP; pH 7.4 [table].
In test [5] the target is T1, mEGFR ECR (His6-Avi-tagged). In words: ELISA: mEGFR ECR on plate, IgG1 titrated, anti-hFc-HRP; pH 6.5 [table].
For test [6] the target is unchanged. In words: ELISA: mEGFR ECR on plate, IgG1 titrated, anti-hFc-HRP; pH 7.4 [table].
Test [7] addresses T3, hEGFR ECR-His6-Avi-Biotin. In words: ELISA: WT hEGFR ECR on plate, IgG1 titrated, anti-hFc-HRP; pH 6.5 [table].
In test [8] the target is T3, hEGFR ECR-His6-Avi-Biotin. The test can be described thus: ELISA: WT hEGFR ECR on plate, IgG1 titrated, anti-hFc-HRP; pH 7.4 [table].
The target in test [9] is T3, hEGFR ECR-His6-Avi-Biotin. The test can be described thus: ELISA: hEGFR ECR on plate, IgG1 titrated, anti-hFc-HRP; pH 6.0 [left panel].
Test [10] deals with T3, hEGFR ECR-His6-Avi-Biotin. The test can be described thus: ELISA: hEGFR ECR on plate, IgG1 titrated, anti-hFc-HRP; pH 7.4 [left panel].
The target of test [11] is T2, hEGFR ECR H370A. The test can be described thus: ELISA: hEGFR ECR H370A on plate, IgG1 titrated, anti-hFc-HRP; pH 6.5 [table].
Test [12] addresses T2, hEGFR ECR H370A. The test can be described thus: ELISA: hEGFR ECR H370A on plate, IgG1 titrated, anti-hFc-HRP; pH 7.4 [table].
The next test concerns the target hEGFR ECR H433A (human, UniProt P00533 25-642). The test can be described thus: ELISA: hEGFR ECR H433A on plate, IgG1 titrated, anti-hFc-HRP; pH 6.5 and pH 7.4.
The target of test [13] is T3, hEGFR ECR-His6-Avi-Biotin. In words: ELISA: hEGFR ECR on plate, IgG1 titrated, anti-hFc-HRP; EC50 at pH 7.4 over EC50 at pH 6.5 [table].
In test [14] the target is T1, mEGFR ECR (His6-Avi-tagged). The test can be described thus: ELISA: mEGFR ECR on plate, IgG1 titrated, anti-hFc-HRP; EC50 at pH 7.4 over EC50 at pH 6.5 [table].
For test [15], the target named is T3, hEGFR ECR-His6-Avi-Biotin. In words: ELISA: WT hEGFR ECR on plate, IgG1 titrated, anti-hFc-HRP; EC50 at pH 7.4 over EC50 at pH 6.5 [table].
Test [16] has as its target T2, hEGFR ECR H370A. In words: ELISA: hEGFR ECR H370A on plate, IgG1 titrated, anti-hFc-HRP; EC50 at pH 7.4 over EC50 at pH 6.5 [table].
Test [17] concerns the target T3, hEGFR ECR-His6-Avi-Biotin. The test can be described thus: competition ELISA: hEGFR ECR on plate, IgG1 titrated in a mixture with EGF-mFc, bound EGF-mFc detected with anti-mFc-HRP; pH 6.0 [left panel].

B1: 14C07 (full-length human IgG1 form) (antibody, V domains shown)
VH: QVQLVQSGAEVKRPGSSVKVSCKASGGTFSSYAISWVRQAPGQGLEWMGGIIPIFGTANYAQKFQGRVTITADESTSTAYMELSSLRSEDTAVYYCARDSSSGWYDYFDYWGQGTLVTVSS
VL: QPVLTQPPSVSAAPGAMARITCESPDIGSKSVQWYQQRPGQAPILVIYYDDDRPSGIPERFSGSNSGNTAALTINWVEPEDEADYYCQAWDDSDPVVFGGGTQLTVLG
In the case of B1, in test [1], the “EC50 ratio, mEGFR/hEGFR (pH 6.5)” value is 8.73. In addition, in the test with hEGFR ECR H370A [2], the “fold weaker pH-dependency of binding than with WT EGFR ECR” value is greater than 2 fold. Besides, the EC50 (as a rule, the midpoint of the concentration-response curve) was 48 pM in test [3]; 155 pM in [4]; 419 pM in test [5]; 2730 pM in test [6]; 301 pM in test [7]; 818 pM in test [8]. The EC50 in [9] came out at 20 pM; in test [10], 662 pM; with hEGFR ECR H370A [11], 433 pM; with hEGFR ECR H370A [12] it was 462 pM. In addition, the binding result in the test with hEGFR ECR H433A is “no binding (tested: 100 nM (Log[Ab] 2))”. Moreover, the “EC50 ratio (pH 7.4/pH 6.5)” value in test [13] is 3.23; in test [14], 6.52; in test [15], 2.72; with hEGFR ECR H370A [16], 1.07. For the same molecule, the IC50 (commonly the midpoint of a concentration-inhibition curve) in test [17] is 29000 pM.
